According to patent EP1798242B1:

What was measured:
[1] = target: IGF-IR exprimé sur des cellules d'insectes Sf9 (baculovirus) (UniProt P08069); assay: FACScan on Sf9 insect cells expressing IGF-IR (baculovirus), anti-mouse FITC secondary; Tableau 1, column Cellules IGF1R +
[2] = target: récepteur à l'insuline IR exprimé sur des cellules d'insectes Sf9 (baculovirus) (UniProt P06213); assay: FACScan on Sf9 insect cells expressing IR (baculovirus), anti-mouse FITC secondary; Tableau 1, column Cellules IR +
[3] = target: IGF-IR exprimé sur des cellules d'insectes Sf9 (baculovirus) (UniProt P08069); assay: FACScan on Sf9 insect cells expressing IGF-IR (baculovirus), secondary antibody alone; Tableau 1, column Cellules IGF1R +
[4] = target: récepteur à l'insuline IR exprimé sur des cellules d'insectes Sf9 (baculovirus) (UniProt P06213); assay: FACScan on Sf9 insect cells expressing IR (baculovirus), secondary antibody alone; Tableau 1, column Cellules IR +

| Substance | MFI (Moyenne de l'intensité de fluorescence) [1] | MFI (Moyenne de l'intensité de fluorescence) [2] | MFI (Moyenne de l'intensité de fluorescence) [3] | MFI (Moyenne de l'intensité de fluorescence) [4] |
| --- | --- | --- | --- | --- |
| AcM commercial αIR3 (anti-IGF-IR) (antibody) | 35 | 32 | – | – |
| Anti-souris FITC (antibody) | – | – | 9 | 13 |
